Data: patent US20240287172A1 (SCIRHOM, published 2024)

T1: hiR2-FL-H505A-T7 (human, UniProt Q6PJF5 1-856)
T1 sequence: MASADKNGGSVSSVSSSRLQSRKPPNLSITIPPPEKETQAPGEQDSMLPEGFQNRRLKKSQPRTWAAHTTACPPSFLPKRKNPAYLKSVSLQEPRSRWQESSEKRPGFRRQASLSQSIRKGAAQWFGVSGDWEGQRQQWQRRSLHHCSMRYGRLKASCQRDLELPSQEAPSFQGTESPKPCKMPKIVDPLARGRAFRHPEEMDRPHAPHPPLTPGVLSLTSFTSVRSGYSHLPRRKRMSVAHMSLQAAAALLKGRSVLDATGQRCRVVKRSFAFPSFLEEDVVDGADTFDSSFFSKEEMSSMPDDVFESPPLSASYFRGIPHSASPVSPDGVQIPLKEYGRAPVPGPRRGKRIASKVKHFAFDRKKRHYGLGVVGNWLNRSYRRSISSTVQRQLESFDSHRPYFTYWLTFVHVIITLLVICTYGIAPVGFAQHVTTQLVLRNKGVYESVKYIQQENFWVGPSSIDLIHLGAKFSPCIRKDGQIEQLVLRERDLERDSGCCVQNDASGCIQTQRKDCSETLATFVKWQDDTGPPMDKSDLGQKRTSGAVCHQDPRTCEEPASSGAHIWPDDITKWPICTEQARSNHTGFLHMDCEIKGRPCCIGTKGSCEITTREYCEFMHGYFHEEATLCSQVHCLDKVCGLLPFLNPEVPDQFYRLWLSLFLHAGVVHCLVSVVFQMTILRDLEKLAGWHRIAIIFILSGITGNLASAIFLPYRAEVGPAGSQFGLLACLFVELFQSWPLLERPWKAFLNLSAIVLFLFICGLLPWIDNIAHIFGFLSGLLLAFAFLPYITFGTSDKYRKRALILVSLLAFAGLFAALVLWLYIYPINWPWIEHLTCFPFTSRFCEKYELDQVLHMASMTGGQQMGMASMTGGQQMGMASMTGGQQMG

T2: hiR2-FL-H585A-T7 (human, UniProt Q6PJF5 1-856)
T2 sequence: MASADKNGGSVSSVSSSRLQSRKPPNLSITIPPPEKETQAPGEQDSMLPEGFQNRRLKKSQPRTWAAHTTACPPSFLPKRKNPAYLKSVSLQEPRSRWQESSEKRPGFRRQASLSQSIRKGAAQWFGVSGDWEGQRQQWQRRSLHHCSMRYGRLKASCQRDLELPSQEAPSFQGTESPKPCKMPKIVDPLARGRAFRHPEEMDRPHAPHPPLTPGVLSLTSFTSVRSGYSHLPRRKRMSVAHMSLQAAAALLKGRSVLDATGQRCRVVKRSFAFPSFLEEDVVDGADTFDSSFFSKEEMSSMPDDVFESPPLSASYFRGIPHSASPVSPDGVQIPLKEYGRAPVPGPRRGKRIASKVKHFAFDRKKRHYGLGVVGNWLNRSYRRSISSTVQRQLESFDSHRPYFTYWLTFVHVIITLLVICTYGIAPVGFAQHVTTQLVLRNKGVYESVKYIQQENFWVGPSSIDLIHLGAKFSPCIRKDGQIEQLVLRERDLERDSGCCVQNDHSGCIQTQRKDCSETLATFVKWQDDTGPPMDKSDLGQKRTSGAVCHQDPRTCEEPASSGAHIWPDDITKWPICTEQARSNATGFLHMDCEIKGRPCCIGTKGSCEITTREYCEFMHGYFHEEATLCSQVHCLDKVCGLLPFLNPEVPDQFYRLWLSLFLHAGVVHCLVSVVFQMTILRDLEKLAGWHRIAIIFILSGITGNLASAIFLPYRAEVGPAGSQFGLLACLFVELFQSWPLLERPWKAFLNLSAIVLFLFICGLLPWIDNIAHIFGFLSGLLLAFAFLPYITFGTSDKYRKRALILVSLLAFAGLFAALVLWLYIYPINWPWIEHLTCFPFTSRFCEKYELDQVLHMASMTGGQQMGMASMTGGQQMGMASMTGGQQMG


Experiments:
[1] = biological target: T1, hiR2-FL-H505A-T7; experiment: FACS on MEF-DKO cells expressing the variant, 3 µg/ml antibody
How it was run: (§1)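 Flow cytometry read-out of binding to variant-expressing cells after two-step staining on ice: 1 h with antibody at 3 μg/ml, then 1 h with PE-labelled goat anti-mouse IgG F(ab′)2 diluted 1:100. Controls received FACS buffer without primary antibody.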

[2] = biological target: T2, hiR2-FL-H585A-T7; experiment: as above
How it was run: as §1

| Binder | loss of binding vs wild type [1] [%] | loss of binding vs wild type [2] [%] |
| --- | --- | --- |
| antibody 50 (antibody, V domains shown, mouse IgG, kappa light chain; also called clone #50; purified antibody 50) VH: QVQLQQSGAELVRPGASVKVSCKASGYAFSNYLIEWVKQRPGQGLEWIGVINPGSGFTKYNEKFKGKATLTADKSSSTAYMQLSSLTSEDSAVYFCARGLYRAMDYWGQGTSVTVSS VL: DIQMTQSPASQSASLGESVTITCLASQTIGTWLAWYQQKPGKSPQLLIYAAASLADGVPSRFSGGGSGTKFSFKISSLQAEDFVNYYCQQIYSTPYTFGGGTKLEIK | ≥ 30 |  |
| antibody 3 (antibody, V domains shown, mouse IgG, kappa light chain; also called clone #3; purified antibody 3) VH: QVTLKESGPGILQPSQTLSLTCSFSGFSLTTFAMGIGWVRQPSGKGLEWLAHIWWDGEKYNNPVLKSRLTISKDTSKNQVFLRIANVDTPDTATYYCARISSIYYIIDNWGQGTSVTVSS VL: DIVLTQSPATLSVTPGHSVSLSCRASQSISNNLHWYQKKSHESPRLLIKYVSQSISGIPSRFSGSGSGTDFTLSINSVETEDFGMYFCQQSYNWPLTFGAGTKLELK |  | ≥ 30 |
